{
  "source": "patent US7314747B1",
  "about": "“SMRT co-repressors, transcriptional co-repressors that interact with nuclear hormone receptors” (The Salk Institute for Biological Studies, priority 1995, dated 2008)",
  "molecules": {"B1": {"name": "TR160 (rTRα Pro 160->Arg mutant, full length) (receptor, rat (printed as rTRα), UniProt P63059 1-492, looked up)", "chain": "MEQKPSKVECGSDPEENSARSPDGKRKRKNGQCPLKSSMSGYIPSYLDKDEQCVVCGDKATGYHYRCITCEGCKGFFRRTIQKNLHPTYSCKYDSCCVIDKITRNQCQLCRFKKCIAVGMAMDLVLDDSKRVAKRKLIEQNRERRRKEEMIRSLQQRPERTPEEWDLIHVATEAHRSTNAQGSHWKQRRKFLPDDIGQSPIVSMPDGDKVDLEAFSEFTKIITPAITRVVDFAKKLPMFSELPCEDQIILLKGCCMEIMSLRAAVRYDPESDTLTLSGEMAVKREQLKNGGLGVVSDAIFELGKSLSAFNLDDTEVALLQAVLLMSTDRSGLLCVDKIEKSQEAYLLAFEHYVNHRKHNIPHFWPKLLMKVTDLRMIGACHASRFLHMKVECPTELFPPLFLEVFEDQEV", "notes": "mature; 35S-labelled probe; also called rTRα R160 mutant; TR160 mutant"}, "B2": {"name": "Gal4-c-SMRT (aa 981 to C terminus) (other)", "chain": "MKLLSSIEQACDICRLKKLKCSKEKPKCAKCLKNNWECRYSPKTKRSPLTRAHLTEVESRLERLEQLFLLIFPREDLDMILKMDSLQDIKALLTGLFVQDNVNKDAVTDRLASVETDMPLTLRQHRISATSSSEESSNKGQRQLTVSAPHHASPDPPAPPASASDPHREKTQSKPFSIQELELRSLGYHGSSYSPEGVEPVSPVSSPSLTHDKGLPKHLEELDKSHLEGELRPKQPGPVKLGGEAAHLPHLRPLPESQPSSSPLLQTAPGVKGHQRVVTLAQHISEVITQDYTRHHPQQLSAPLPAPLYSFPGASCPVLDLRRPPSDLYLPPPDHGAPARGSPHSEGGKRSPEPNKTSVLGGGEDGIEPVSPPEGMTEPGHSRSAVYPLLYRDGEQTEPSRMGSKSPGNTSQPPAFFSKLTESNSAMVKSKKQEINKKLNTHNRNEPEYNISQPGTEIFNMPAITGTGLMTYRSQAVQEHASTNMGLEAIIRKALMGGGKAKVSGRPSSRKAKSPAPGLASGDRPPSVSSVHSEGDCNRRTPLTNRVWEDRPSSAGSTPFPYNPLIMRLQAGVMASPPPPGLPAGSGPLAGPHHAWDEEPKPLLCSQYETLSDSE", "notes": "also called vertebrate corepressor"}, "B3": {"name": "v-erbA (naturally occurring oncogene, oncogenic TR variant) (receptor)", "chain": "REEQVTSEQAKFWLGLGGGRVSPPGPECIEKPATERRIDKGEEMGETTVQRDAKMAPEKMATPKTVGTSCYQCGTATGCNCVTASAPPPPYVGSGLYPSLAGAGEQGQGGDTPRGAEQPRAEPGHAGQAPGPALTDWARIREELASTGPPVVAMPVVIKTEGPAWTPLEPEDTRWLDGKHKRKSSQCLVKSSMSGYIPSCLDKDEQCVVCGDKATGYHYRCITCEGCKSFFRRTIQKNLHPTYSCTYDGCCVIDKITRNQCQLCRFKKCISVGMAMDLVLDDSKRVAKRKLIEENRERRRKEEMIKSLQHRPSPSAEEWELIHVVTEAHRSTNAQGSHWKQRRKFLLEDIGQSPMASMLDGDKVDLEAFSEFTKIITPAITRVVDFAKNLPMFSELPCEDQIILLKGCCMEIMSLRAAVRYDPESETLTLSGEMAVKREQLKNGGLGVVSDAIFDLGKSLSAFNLDDTEVALLQAVLLMSSDRTGLICVDKIEKCQESYLLAFEHYINYRKHNIPHFWSKLLMKVADLRMIGAYHASRFLHMKVECPTELSPQEV"}, "B4": {"name": "m-SMRTβ (amino acids 1 to 813): construct containing the entire amino terminus of m-SMRTβ (protein, UniProt Q9WU42 1-813, looked up, fragment)", "chain": "MSGSTQPVAQTWRAAEPRYPPHGISYPVQIARSHTDVGLLEYQHHPRDYTSHLSPGSIIQPQRRRPSLLSEFQPGSERSQELHLRPESRTFLPELGKPDIEFTESKRPRLELLPDTLLRPSPLLATGQPSGSEDLTKDRSLAGKLEPVSPPSPPHADPELELAPSRLSKEELIQNMDRVDREITMVEQQISKLKKKQQQLEEEAAKPPEPEKPVSPPPIESKHRSLVQIIYDENRKKAEAAHRILEGLGPQVELPLYNQPSDTRQYHENIKINQAMRKKLILYFKRRNHARKQWEQRFCQRYDQLMEAWEKKVERIENNPRRRAKESKVREYYEKQFPEIRKQRELQERMQSRVGQRGSGLSMSAARSEHEVSEIIDGLSEQENLEKQMRQLAVIPPMLYDADQQRIKFINMNGLMDDPMKVYKDRQVTNMWSEQERDTFREKFMQHPKNFGLIASFLERKTVAECVLYYYLTKKNENYKSLVRRSYRRRGKSQQQQQQQQQQQQQQMARSSQEEKEEKEKEKEADKEEEKQDAENEKEELSKEKTDDTSGEDNDEKEAVASKGRKTANSQGRRKGRITRSMANEANHEETATPQQSSELASMEMNESSRWTEEEMETAKKGLLEHGRNWSAIARMVGSKTVSQCKNFYFNYKKRQNLDEILQQHKLKMEKERNARRKKKKTPAAASEETAFPPAAEDEEMEASGASANEEELAEEAEASQASGNEVPRVGECSGPAAVNNSSDTESVPSPRSEATKDTGPKPTGTEALPAATQPPVPPPEEPAVAPAEPSPVPDASGPPSPEPSPSPAAPPA", "modifications": "SMRTbeta"}},
  "key": {"[1]": {"target": "T1, E52-RAR interaction (Homo sapiens, UniProt P10276)", "T1 construct": "hRAR (amino acids 186-462); expressed in transfected cells; host or cells: Y190 yeast cells", "T1 sequence (P10276 186-462)": "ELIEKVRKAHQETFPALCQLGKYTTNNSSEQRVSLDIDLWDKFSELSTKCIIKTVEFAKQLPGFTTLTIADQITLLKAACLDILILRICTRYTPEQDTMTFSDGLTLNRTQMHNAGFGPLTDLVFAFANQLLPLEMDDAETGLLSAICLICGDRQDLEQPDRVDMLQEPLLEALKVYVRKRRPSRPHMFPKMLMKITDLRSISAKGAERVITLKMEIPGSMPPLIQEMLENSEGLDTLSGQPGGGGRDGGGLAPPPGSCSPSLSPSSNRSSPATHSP", "experiment": "Yeast two-hybrid assay, E52-RAR interaction", "assay_type": "cell-based", "settings": "3 μM ligand", "description": "Transformants were selected onto DO-Leu-Trp-His plates containing 40 mM 3-aminotriazole (Sigma) for 3-4 days. Surviving yeast colonies were picked as primary positives and restreaked on selection plates to isolate single clones. Activation domain plasmids were rescued from the selected positive transformants for further analysis. Each clone was evaluated by testing its potential interaction with several other nuclear receptors using the yeast two-hybrid assays. […] Quantitative liquid assay of β-galactosidase was performed on positive clones 16 hr after treating the yeast cells with no ligand, or with 3 μM ligand."}, "[2]": {"target": "GST-SMRT (GST fusion of the C-SMRT encoded by the yeast two hybrid clone) (human) (UniProt Q9Y618)", "experiment": "far-western: 35S-labelled receptor on immobilized GST-SMRT, phosphoimager"}, "[3]": {"target": "T2, GST-SMRT (GST fusion of the C-SMRT encoded by the yeast two hybrid clone) (human, UniProt Q9Y618 2000-2514)", "T2 construct": "also called immobilized GST-SMRT; not shown: glutathione S-transferase (GST) tag", "experiment": "far-western: 35S-labelled receptor on GST-SMRT, phosphoimager"}, "[4]": {"target": "T3, EcR A483T (Drosophila, UniProt P34021 1-878)", "T3 construct": "CMV vector, cotransfected with VP16-USP; also called repression-defective EcR allele", "T3 sequence (looked up)": "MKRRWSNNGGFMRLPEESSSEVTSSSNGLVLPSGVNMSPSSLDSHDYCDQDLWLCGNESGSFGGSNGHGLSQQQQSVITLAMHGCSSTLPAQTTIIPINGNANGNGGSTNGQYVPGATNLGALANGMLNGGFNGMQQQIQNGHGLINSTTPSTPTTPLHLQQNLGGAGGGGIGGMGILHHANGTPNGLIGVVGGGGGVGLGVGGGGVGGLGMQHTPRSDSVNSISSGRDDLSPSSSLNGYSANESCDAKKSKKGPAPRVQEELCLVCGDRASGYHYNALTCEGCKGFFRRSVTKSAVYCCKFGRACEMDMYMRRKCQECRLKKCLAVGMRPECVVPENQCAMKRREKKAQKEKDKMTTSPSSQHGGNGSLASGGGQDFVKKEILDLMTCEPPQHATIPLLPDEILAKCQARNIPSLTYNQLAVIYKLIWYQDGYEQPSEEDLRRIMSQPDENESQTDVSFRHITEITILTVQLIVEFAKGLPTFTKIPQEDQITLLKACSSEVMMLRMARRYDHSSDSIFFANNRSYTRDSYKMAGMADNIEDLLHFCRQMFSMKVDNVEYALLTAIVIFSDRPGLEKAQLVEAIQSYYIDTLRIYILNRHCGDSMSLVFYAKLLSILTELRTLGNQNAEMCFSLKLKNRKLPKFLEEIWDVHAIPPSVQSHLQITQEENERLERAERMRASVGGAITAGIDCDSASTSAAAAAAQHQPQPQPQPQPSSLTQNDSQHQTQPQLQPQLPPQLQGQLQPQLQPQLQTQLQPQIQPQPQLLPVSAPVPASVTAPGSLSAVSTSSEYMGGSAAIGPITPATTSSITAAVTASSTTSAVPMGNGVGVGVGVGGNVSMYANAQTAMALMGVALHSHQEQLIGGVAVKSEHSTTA", "experiment": "mammalian two-hybrid in CV-1 cells (with VP16-USP)"}, "[5]": {"tested_on": "GAL4-TK-luciferase reporter in CV-1 cells", "experiment": "GAL4-SMRT amino terminus fusions cotransfected with GAL4-TK-luciferase reporter in CV-1 cells", "assay_type": "cell-based, Monkey", "settings": "luciferase normalized to β-galactosidase", "description": "Experiments were performed using the plasmids pCMX-GAL4 DBD and pMH100-TK-luc (Nagy et al., (1997), supra). Standard PCR amplifications were used to generate GAL4 fusion constructs. All constructs were verified by double-stranded sequencing to confirm identity and reading frame.\nMonkey CV-1 cells were grown in DMEM supplemented with 10% resin-charcoal stripped fetal bovine serum (FBS), 50 units/ml of penicillin G, and 50 μg/ml of streptomycin sulfate at 37° C. in 7% CO2. V-1 cells (60-70% confluence, 48-well plate) were cotransfected with 16 ng of pCMX-GAL4, 100 ng of pMH100-TK-luc, and 100 ng of pCMX-β galactosidase in 200 μl of DMEM containing 10% super-stripped fetal calf serum (FCS) by the N-(1-(2,3-dioleoyloxy)propyl)-N,N,N-trimethylammonium methylsulfate (DOTAP)-mediated procedure (Nagy et al., (1997), supra). The amount of DNA in each transfection was kept constant by addition of pCMX. After 24 hr, the medium was replaced; cells were harvested and assayed for luciferase activity 36 to 48 hr after transfection. […]\nBased on the high degree of identity between regions of the SMRT amino terminus and the corresponding N-CoR region, the ability of regions in the SMRT amino terminus to act in transcriptional repression was examined. […] Repression was determined relative to the basal activity of the reporter in the presence of the GAL-DBD alone."}},
  "data": [
    {"molecule": "CC1=C(/C=C/C(C)=C/C=C/C(C)=C/C(=O)O)C(C)(C)CCC1", "note": "[atRA, all-trans retinoic acid]", "values": [
      {"measurement": "dissociation of the interaction between E52 and RAR by ligand", "setting": "[1]", "value": "can be dissociated"}
    ]},
    {"molecule": "RAR403 (carboxy-terminal deletion mutant of RAR) (from UniProt P10276 1-403) (receptor)", "values": [
      {"measurement": "fold interaction relative to wild type RAR (phosphoimager)", "setting": "[2]", "value": 4, "unit": "fold"}
    ]},
    {"molecule": "B1", "values": [
      {"measurement": "fold lower signal relative to rTRα (phosphoimager)", "setting": "[3]", "value": 10, "unit": "fold lower"}
    ]},
    {"molecule": "B2", "values": [
      {"measurement": "binding result", "setting": "[4]", "value": "no binding"}
    ]},
    {"molecule": "B3", "values": [
      {"measurement": "fold interaction relative to hTRβ (phosphoimager)", "setting": "[3]", "value": 18, "unit": "fold"}
    ]},
    {"molecule": "B4", "values": [
      {"measurement": "repression relative to basal reporter activity with GAL-DBD alone", "setting": "[5]", "value": "about 2.6 fold"}
    ]}
  ]
}
